Measurements published in patent publication US20210155689A1 (SHANGHAI PHARMAEXPLORER, published 2021).

Legend:
[1] = molecular target: T1, monkey LAG-3 (full length, on the cell surface) (monkey, UniProt P18627 24-525 (human entry)); assay: FACS, HEK293-cLAG-3; 40.000 nM
T1 construct: also called HEK293-cLAG-3; monkey LAG-3 protein on the cell surface
T1 chain: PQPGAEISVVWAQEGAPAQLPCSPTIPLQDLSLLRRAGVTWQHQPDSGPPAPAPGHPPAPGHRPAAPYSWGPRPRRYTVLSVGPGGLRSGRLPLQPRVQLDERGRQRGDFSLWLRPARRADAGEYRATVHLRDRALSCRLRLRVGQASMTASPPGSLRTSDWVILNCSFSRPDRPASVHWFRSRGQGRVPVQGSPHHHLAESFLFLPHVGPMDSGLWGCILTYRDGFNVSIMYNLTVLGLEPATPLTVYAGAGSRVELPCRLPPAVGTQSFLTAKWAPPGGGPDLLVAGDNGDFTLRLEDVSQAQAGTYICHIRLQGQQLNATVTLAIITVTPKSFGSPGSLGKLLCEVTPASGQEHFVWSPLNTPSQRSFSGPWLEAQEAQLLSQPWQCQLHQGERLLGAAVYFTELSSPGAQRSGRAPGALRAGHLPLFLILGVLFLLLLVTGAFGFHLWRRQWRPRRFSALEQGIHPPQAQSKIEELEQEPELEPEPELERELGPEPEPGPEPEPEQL
Description: The pIRES plasmid with the monkey-derived full-length gene was transfected into the HEK293 cell line to construct a HEK293 stable cell line containing monkey LAG-3 (herein referred to as HEK293-cLAG-3 stable cell line). The HEK293-hLAG-3 stable cell line and HEK293-cLAG-3 stable cell line were expanded in a T-75 cell culture flask to a 90% confluence. The medium was aspirated, and the cells were washed with HBSS (Hanks' Balanced Salt Solution) 1-2 times, then treated with a enzyme-free cell dissociation fluid (Versene solution: Life technology) and the cells were collected. The cells were washed with HBSS buffer for 1-2 times. After counted, the cells were diluted with HBSS to 1-2×10⁶ cells per ml, added with 1% goat serum blocking solution, incubated on ice for 20-30 minutes, and then washed with HBSS for 2 times by centrifugation. The collected cells were suspended in the FACS buffer (HBSS+1% BSA) to 2×10⁶ cells/ml, added as 100 microliters per well to a 96-well FACS reaction plate, added with 100 microliters per well of the antibody sample to be tested, incubated on ice for 1-2 hours. The plate was washed twice with the FACS buffer by centrifugation, added with 100 microliters of fluorescent (Alexa 488)-labeled secondary antibodies per well, and incubated on ice for 0.5-1.0 hours. The plate was washed 2-3 times with FACS buffer by centrifugation, added with 100 μl fixative solution (4% Paraformaldehyde) per well to suspend the cells. 5-10 minutes later, it was washed 1-2 times with FACS buffer by centrifugation. The cells were suspended with 100 microliters of FACS buffer, FACS (FACSCalibur, BD) was used for detection and the results were analyzed.

[2] = molecular target: T2, human LAG-3 protein with hFc tag (hLAG-3-hFc protein) (human, UniProt P18627 23-450); assay: ELISA, hLAG-3-hFc coated; 0.0007 nM
T2 construct: also called immunogen 1; LAG-3 extracellular domain protein; not shown: human IgG Fc fragment (hFc) of the pCpC vector
T2 sequence: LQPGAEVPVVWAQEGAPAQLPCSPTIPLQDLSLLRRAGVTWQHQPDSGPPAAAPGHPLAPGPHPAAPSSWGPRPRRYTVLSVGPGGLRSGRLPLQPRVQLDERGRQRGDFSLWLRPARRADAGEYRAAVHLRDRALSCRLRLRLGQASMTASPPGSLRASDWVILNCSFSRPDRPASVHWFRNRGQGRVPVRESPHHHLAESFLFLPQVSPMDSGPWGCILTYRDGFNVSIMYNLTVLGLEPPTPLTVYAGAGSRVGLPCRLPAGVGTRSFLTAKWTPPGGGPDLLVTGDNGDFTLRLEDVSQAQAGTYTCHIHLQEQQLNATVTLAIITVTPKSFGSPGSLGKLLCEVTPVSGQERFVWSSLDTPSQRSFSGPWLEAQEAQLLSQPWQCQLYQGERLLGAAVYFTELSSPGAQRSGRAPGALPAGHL
Experimental: (§1) The plate was sealed with plastic film and incubated overnight at 4° C. The plate was washed 2 times with the plate washing solution (PBS+0.01% Tween20) on the next day, and added with the blocking solution (PBS+0.01% Tween20+1% BSA) and blocked at room temperature for 1-2 hours. The blocking solution was poured out, and the plate was added with 50-100 μl of the antibody sample to be tested to each well, incubated at 37° C. for 1-2 hours, and washed 2-3 times with a plate washing solution (PBS+0.01% Tween20). HRP (horseradish peroxidase) labeled secondary antibody was added, and the plate was incubated at 37° C. for 1-2 hours, and washed 2-3 times with a plate washing solution (PBS+0.01% Tween20). 100 μl of TMB substrate was added to each well. After incubated at room temperature for 15-30 minutes, the plate was added with 100 μl of stop solution (1.0N HCl) to each well.

[3] = molecular target: T3, mouse LAG-3 protein with hFc tag (mLAG-3-hFc protein) (mouse; human, UniProt Q61790 24-442); assay: ELISA, mLAG-3-hFc coated; 0.0067 nM
T3 construct: Made in HEK293 cells; also called mouse LAG-3 extracellular domain protein; not shown: human IgG Fc fragment (hFc) of the pCpC vector
T3 sequence: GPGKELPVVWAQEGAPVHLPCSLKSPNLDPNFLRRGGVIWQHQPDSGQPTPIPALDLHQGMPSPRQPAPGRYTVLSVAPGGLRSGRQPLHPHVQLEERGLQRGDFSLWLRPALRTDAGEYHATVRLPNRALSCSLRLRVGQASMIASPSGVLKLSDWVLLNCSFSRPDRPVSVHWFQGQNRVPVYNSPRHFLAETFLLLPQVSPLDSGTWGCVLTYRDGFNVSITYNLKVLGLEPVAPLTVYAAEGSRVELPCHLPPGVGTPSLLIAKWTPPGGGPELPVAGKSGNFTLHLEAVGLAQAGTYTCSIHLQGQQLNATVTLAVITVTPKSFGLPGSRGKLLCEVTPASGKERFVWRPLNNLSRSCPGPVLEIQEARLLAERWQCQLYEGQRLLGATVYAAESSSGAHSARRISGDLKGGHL
Experimental: as §1

[4] = molecular target: T2, human LAG-3 protein with hFc tag …; assay: ELISA, hLAG-3-hFc coated; 0.6667 nM
Experimental: as §1

B1: 556F6B8 (mouse antibody purified from hybridoma) (antibody, V domains shown)
VH: RVQLKQSGPGLVQPSQSLSITCTVSGFSLIKYGVHWVRQSPGEGLEWLGVIWRGGITDYNAAFMSRLSITKDNSKSQVFFKMNSLQADDTAIYYCAKWDGPLAMDYWGQGTSVTVSS
VL: DIVMTQSHKFLSTSVGDRVSITCKASQDVGTTVAWYQQKPGQSPKLLIYWASTRHTGVPDRFTGSGSGTDFTLTISNVQSEDLADYFCQQYSSYPYTFGGGTKLEIK
notes: also called mAb123-556F6B8
Mean fluorescence intensity [1]: 51 MFI

B2: 556F6B8 (LAG-3 mouse-human chimeric antibody) (antibody, V domains shown)
VH: RVQLKQSGPGLVQPSQSLSITCTVSGFSLIKYGVHWVRQSPGEGLEWLGVIWRGGITDYNAAFMSRLSITKDNSKSQVFFKMNSLQADDTAIYYCAKWDGPLAMDYWGQGTSVTVSS
VL: DIVMTQSHKFLSTSVGDRVSITCKASQDVGTTVAWYQQKPGQSPKLLIYWASTRHTGVPDRFTGSGSGTDFTLTISNVQSEDLADYFCQQYSSYPYTFGGGTKLEIK
notes: also called 556F8B8
OD450 [2]: 0.17 OD450
OD450 [3]: 0.14 OD450
OD450 [4]: 3.76 OD450

B3: 405B8H3 (mouse antibody purified from hybridoma) (antibody, V domains shown)
VH: QVQLQQSGAELVRPGASVTLSCKASGYTFTDYEMHWVKQTPVHGLEWIGATDPETGNSAYNQKFKGKAIMTADKSSSTAYMELRSLTSEDSAVYYCISTGWNDWGQGTSLTVSS
VL: DIKMTQSPSSMYASLGERVTITCKASQDINSYLSWFQQKPGKSPKTLIYRADRLLDGVPSRFSGSGSGQDYSLTISSLEYGDMGIYYCLQYDEFPYTFGGGTKLEIK
notes: also called mAb103-405B8H3; 405B81-13
Mean fluorescence intensity [1]: 108 MFI

B4: 405B8H3 (LAG-3 mouse-human chimeric antibody) (antibody, V domains shown)
VH: QVQLQQSGAELVRPGASVTLSCKASGYTFTDYEMHWVKQTPVHGLEWIGATDPETGNSAYNQKFKGKAIMTADKSSSTAYMELRSLTSEDSAVYYCISTGWNDWGQGTSLTVSS
VL: DIKMTQSPSSMYASLGERVTITCKASQDINSYLSWFQQKPGKSPKTLIYRADRLLDGVPSRFSGSGSGQDYSLTISSLEYGDMGIYYCLQYDEFPYTFGGGTKLEIK
notes: also called mouse-human chimeric antibody 405B8H3
OD450 [2]: 0.19 OD450
OD450 [3]: 0.08 OD450
OD450 [4]: 3.51 OD450

B5: 105F1E10 (LAG-3 mouse-human chimeric antibody) (antibody, V domains shown)
VH: EVQLQQSGPELVKPGASVKMSCRASGYTFTDFKMHWMKQSHGKSLEWIGYIAPNNGGTAYNQKFRGKATLTVNESSNTAYMELRSLTSEDSAVYYCVDWDDVDYWGQGTTLTVSS
VL: DIKMTQSPSSMYASLGERVTITCKASQDINSYLSWFQQKSGKSPKTLIYRANRLVDGVPSRFSGSGSGQDYSLTISSLEYEDMGIYYCLQYVEFPLTFGAGTKLELK
OD450 [2]: 0.2 OD450
OD450 [3]: 0.09 OD450
OD450 [4]: 3.46 OD450

B6: 105F1E10 (mouse antibody purified from hybridoma) (antibody, V domains shown)
VH: EVQLQQSGPELVKPGASVKMSCRASGYTFTDFKMHWMKQSHGKSLEWIGYIAPNNGGTAYNQKFRGKATLTVNESSNTAYMELRSLTSEDSAVYYCVDWDDVDYWGQGTTLTVSS
VL: DIKMTQSPSSMYASLGERVTITCKASQDINSYLSWFQQKSGKSPKTLIYRANRLVDGVPSRFSGSGSGQDYSLTISSLEYEDMGIYYCLQYVEFPLTFGAGTKLELK
notes: also called mAb009-105F1E10
Mean fluorescence intensity [1]: 87 MFI

B7: 409D4E10 (mouse antibody purified from hybridoma) (antibody, V domains shown)
VH: QVQLQQSGAELVRPGASVTLSCKASGNTFTDYEMHWVKQTPVHGLEWIGATDPETDNTAYNQKFKGKAILTTDKSSSTAYMELRSLTSEDSAVYYCITSGWNDWGQGTSLTVSS
VL: DIKMTQSPSSMYASLGERVTITCKASQDINSYLSWFQQKPGKSPKTLIYRANRLLDGVPSRFSGSGSGQDYSLTISSLEYEDMGIYYCLQYNEFPYTFGGGTKLEIK
notes: also called mAb112-409D4E10
Mean fluorescence intensity [1]: 130 MFI

B8: 409B11E12 (mouse antibody purified from hybridoma) (antibody, V domains shown)
VH: QVQLQQSGAELVRPGASVTLSCKASGYTFTDYEMHWVKQTTVHGLEWIGATDPETSYSAYNQKFKGKAILTADKSSSTAYMELRSLTSEDSAVYYCIATGWNDWGQGTSLTVSS
VL: DLKMTQSPSSMYASLGERVTITCKASQDINSYLSWFQQKPGKSPKTLIYRANRLLDGVPSRFSGSGSGQDYSLTISSLEYEDMGIYYCLQYDEFPYTFGGGTKLEIK
notes: also called mAb104-409B11E12
Mean fluorescence intensity [1]: 102 MFI

B9: 409D4E10 (LAG-3 mouse-human chimeric antibody) (antibody, V domains shown)
VH: QVQLQQSGAELVRPGASVTLSCKASGNTFTDYEMHWVKQTPVHGLEWIGATDPETDNTAYNQKFKGKAILTTDKSSSTAYMELRSLTSEDSAVYYCITSGWNDWGQGTSLTVSS
VL: DIKMTQSPSSMYASLGERVTITCKASQDINSYLSWFQQKPGKSPKTLIYRANRLLDGVPSRFSGSGSGQDYSLTISSLEYEDMGIYYCLQYNEFPYTFGGGTKLEIK
OD450 [2]: 0.16 OD450
OD450 [3]: 0.09 OD450
OD450 [4]: 3.76 OD450

B10: 409B11E12 (LAG-3 mouse-human chimeric antibody) (antibody, V domains shown)
VH: QVQLQQSGAELVRPGASVTLSCKASGYTFTDYEMHWVKQTTVHGLEWIGATDPETSYSAYNQKFKGKAILTADKSSSTAYMELRSLTSEDSAVYYCIATGWNDWGQGTSLTVSS
VL: DLKMTQSPSSMYASLGERVTITCKASQDINSYLSWFQQKPGKSPKTLIYRANRLLDGVPSRFSGSGSGQDYSLTISSLEYEDMGIYYCLQYDEFPYTFGGGTKLEIK
OD450 [2]: 0.2 OD450
OD450 [3]: 0.07 OD450
OD450 [4]: 3.55 OD450
